Measured values published in patent US20070111265A1 (VAN ANDEL RESEARCH INSTITUTE, published 2007).
Positions count from the first letter of the chain named. One block for each binder: values may come before it. No end group written: not given here.

Experiments:
[1] = target: T1, human MR LBD (residues 727-984) containing a C808S mutation, 6xHis-GST fusion protein (human, UniProt P08235 727-984); assay: AlphaScreen, biotinylated peptide and 6xHis-GST MR LBD/corticosterone
T1 construct: also called purified MR LBD; MR LBD (C808S); not shown: glutathione S-transferase (GST) tag; thrombin protease site between GST and the MR LBD
T1 sequence: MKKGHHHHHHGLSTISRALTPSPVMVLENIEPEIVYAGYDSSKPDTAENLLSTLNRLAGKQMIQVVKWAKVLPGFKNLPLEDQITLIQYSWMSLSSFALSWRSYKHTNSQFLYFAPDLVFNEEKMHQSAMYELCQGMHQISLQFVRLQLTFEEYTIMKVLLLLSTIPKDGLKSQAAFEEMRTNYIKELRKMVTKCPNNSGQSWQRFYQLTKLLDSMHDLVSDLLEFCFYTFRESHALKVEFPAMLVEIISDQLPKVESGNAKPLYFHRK

[2] = target: T2, MR LBD (C808S) with K785E first charge clamp mutation, 6xHis-GST fusion protein (human, UniProt P08235 727-984); assay: AlphaScreen, 100 nM corticosterone
T2 construct: not shown: glutathione S-transferase (GST) tag; thrombin protease site between GST and the MR LBD
T2 sequence: T1 sequence with K70E

[3] = target: T1, human MR LBD (residues 727-984) …; assay: AlphaScreen competition (IC50 per FIG. 3F legend), MR LBD/corticosterone
Protocol: (§1) The binding of various peptide motifs to MR was determined by AlphaScreen assays using a hexahistidine detection kit from Perkin-Elmer. MR proteins were prepared as 6×His-GST fusion proteins for the assays.

[4] = target: T1, human MR LBD (residues 727-984) …; assay: AlphaScreen quantitative competition with unlabeled peptide, MR LBD/corticosterone
Protocol: as §1

[5] = target: T3, MR LBD (C808S) with E962R first charge clamp (AF-2 helix) mutation, 6xHis-GST fusion protein (human, UniProt P08235 727-984); assay: AlphaScreen, 100 nM corticosterone
T3 construct: not shown: glutathione S-transferase (GST) tag; thrombin protease site between GST and the MR LBD
T3 sequence: T1 sequence with E247R

Binder: QAVQEHASASTNMGLEAIIRKALMGKY (also: biotinylated, site not given here, also called SMRT corepressor motif) [biotinylated SMRT-2 peptide]
binding result [1]: no binding

Binder: GHSFADPASNLGLEDIIRKALMGSF (also: biotinylated, site not given here, also called N-COR corepressor motif) [biotinylated NCOR-2 peptide]
binding result [1]: no binding

B1: biotinylated SRC2-3 (TIF2) peptide (peptide)
peptide: QEPVSPKKKENALLRYLLDKDDTKD
modifications: also: biotinylated, site not given here
notes: also called third LXXLL motif of SRC2; TIF2/GRIP1 third motif
binding result [2]: no binding

B2: SRC2-(2+3), human SRC2 fragment (residues 563-763) containing the 2nd and 3rd LXXLL motifs, 6xHis-GST fusion protein (other, UniProt Q15596 563-763, looked up)
chain: QNSPVNMNPPPLSKMGSLDSKDCFGLYGEPSEGTTGQAESSCHPGEQKETNDPNLPPAVSSERADGQSRLHDSKGQTKLLQLLTTKSDQMEPSPLASSLSDTNKDSTGSLPGSGSTHGTSLKEKHKILHRLLQDSSSPVDLAKLTAEATGKDLSQESSSTAPGSEVTIKQEPVSPKKKENALLRYLLDKDDTKDIGLPEIT
notes: No removal of the 6xHis-GST tag is described; also called purified SRC2 fragment; not shown: 6xHis tag; glutathione S-transferase (GST) tag
IC50 [3]: 0.04 µM

B3: SRC2-(M2+3), SRC2 fragment (2+3) with the 2nd LXXLL motif mutated to LXXAA (other, UniProt Q15596 563-763, looked up)
chain: B2 chain with L131A, L132A
notes: not shown: 6xHis tag; glutathione S-transferase (GST) tag
fold decrease of binding affinity against SRC2-(2+3) [3]: > 10 fold

Binder: SPSSHSSLTERHKILHRLLQEGSP (also: biotinylated, site not given here) [biotinylated SRC1-2 peptide]
binding result [5]: no binding
binding result [2]: no binding

Further lines, results first:

IC50 [4]: 0.9 µM
B4: unlabeled SRC1-4 peptide AQQKSLLQQLLTE (peptide)
peptide: AQQKSLLQQLLTE
notes: treated as one molecule; also called SRC1-4 LXXLL motif

IC50 [4]: 21.4 µM
Binder: SQTSHKLVQLLTTTA (also called 1st motif of SRC1) [unlabeled SRC1-1 peptide]

IC50 [4]: 16.8 µM
Binder: SKGHKKLLQLLTCSS (also called 1st motif of SRC3) [unlabeled SRC3-1 peptide]

binding result [2]: no binding
Binder: QKPTSGPQTPQAQQKSLLQQLLTE (also: biotinylated, site not given here) [biotinylated SRC1-4 peptide]
